In patent US20240254209A1:
Values joined by “and” are separate entries in the source; they are usually repeats but may differ in a detail not shown here. Equal values may be shown once.

T1: peanut allergen Ara h 2 (peanut (Arachis hypogaea)) (UniProt Q6PSU2)
T1 sequence (looked up): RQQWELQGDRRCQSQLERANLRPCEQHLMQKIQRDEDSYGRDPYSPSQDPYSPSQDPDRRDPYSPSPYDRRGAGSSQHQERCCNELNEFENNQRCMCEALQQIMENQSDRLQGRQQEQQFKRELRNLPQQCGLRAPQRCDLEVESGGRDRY

T2: peanut allergen Ara h 1 (peanut (Arachis hypogaea)) (UniProt P43238)
T2 sequence (looked up): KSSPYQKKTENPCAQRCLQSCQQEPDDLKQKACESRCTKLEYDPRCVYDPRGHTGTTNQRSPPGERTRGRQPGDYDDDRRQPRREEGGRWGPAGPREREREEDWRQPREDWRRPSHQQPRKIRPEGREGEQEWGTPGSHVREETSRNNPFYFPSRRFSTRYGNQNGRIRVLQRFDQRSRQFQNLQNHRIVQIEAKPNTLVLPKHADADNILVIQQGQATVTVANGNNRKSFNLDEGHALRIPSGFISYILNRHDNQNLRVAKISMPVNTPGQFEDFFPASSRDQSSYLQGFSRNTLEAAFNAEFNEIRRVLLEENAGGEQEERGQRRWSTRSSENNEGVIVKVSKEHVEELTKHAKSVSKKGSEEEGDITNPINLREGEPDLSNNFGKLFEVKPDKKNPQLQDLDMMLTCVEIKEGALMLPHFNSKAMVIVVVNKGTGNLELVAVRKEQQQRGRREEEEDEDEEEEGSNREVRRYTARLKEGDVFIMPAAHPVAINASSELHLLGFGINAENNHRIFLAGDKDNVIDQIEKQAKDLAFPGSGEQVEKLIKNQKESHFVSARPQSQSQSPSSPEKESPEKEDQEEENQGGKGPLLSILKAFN

T3: peanut allergen Ara h 6 (peanut (Arachis hypogaea)) (UniProt Q647G9)
T3 sequence (looked up): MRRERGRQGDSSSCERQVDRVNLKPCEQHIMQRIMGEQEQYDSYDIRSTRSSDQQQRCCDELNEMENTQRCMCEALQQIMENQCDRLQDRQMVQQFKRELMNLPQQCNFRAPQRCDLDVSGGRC


Key:
[1] = biological target: peanut extract (peanut ImmunoCAP F13); assay: ImmunoCAP, hybridoma supernatant
[2] = biological target: T1, peanut allergen Ara h 2 (peanut (Arachis hypogaea)); assay: ImmunoCAP, hybridoma supernatant
[3] = biological target: T2, peanut allergen Ara h 1 (peanut (Arachis hypogaea)); assay: ImmunoCAP, hybridoma supernatant
[4] = biological target: peanut extract (peanut ImmunoCAP F13); assay: peanut ImmunoCAP serum blocking; competitor: serum IgE of peanut allergic subjects
[5] = biological target: T3, peanut allergen Ara h 6 (peanut (Arachis hypogaea)); assay: Ara h 6 ImmunoCAP serum blocking; competitor: serum IgE of peanut allergic subjects

Binder	ImmunoCAP kUA/L [1] [kUA/L]	ImmunoCAP kUA/L [2] [kUA/L]	ImmunoCAP kUA/L [3] [kUA/L]	percent of total peanut binding serum IgE blocked [4]	percent of serum Ara h 6-specific IgE blocked [5] [%]
human IgE mAb 3B7 (antibody, V domains shown) VH: QVQLVQSGSELKKPGASMKVSCKASGYTFTNYAMNWVRQAPGQGLEWMGWINTNTGKPTYAQGFTGRFVFSLDTSVSMAYLQISSLEAGDTAVYFCARGESLAALGSFAYWGQGTLVTVSS VL: DIQMTQSPSSLSASVGDRVTITCRASQSINSYLAWYQQKPGKAPNLLIYAASNLQSGVPSRFSGSGSGTDFTLTISSLQPEDFATYYCQQSSSTFWTFGQGTKVEIK	1500	0.63	0.3		
human IgE mAb 2C9 (antibody, V domains shown) VH: QVQLVESGGGLVKPGGSLRLSCAASGFSFSDFYMSWIRQAPGKGLECISYMSSSGGNIYYADSVKGRFTISRDNAKNSLSLQMNSLRADDTALYYCARRRYGSGSSIFDYWSQGTLVTVSS VL: SYELTQPPSVSVSPGQTASVTCSGDTLGDRYVSWYQQKAGQSPVLVIYQSGQRPSGIPERFSGSNSGNTATLSISETQALDEADYYCLTWDRGTPVFGPGTTVTVV	21.4	0.13			
Ara h 6-specific blocking IgG mAb 1H9 (antibody, V domains shown) VH: QVQLVQSGSELRKPGASVKVSCKASGYTFTKYGMNWVRQAPGQGLEWMGWINTNTAKPTYAQDFTGRFVFSLDTSVNTAYLEISGLKAEDTAVYYCATDGSEGSWGQGTLVTVSS VL: DIQMTQSPSTLSASVGDRVTITCRASQSIGTWLAWHQQKPGTAPKVLIYKASNLKSGVPSRFSGSGSGTDFTLTISSLQPDDVATYYCQQYNTYSGTFGQGTRVEIK				20% and 25%	50
human IgE mAb 3C3 (antibody, V domains shown) VH: QLQLQESGPGLVKPSETLSLTCSISGASINSDDYYWGWIRQAPGEALEWIASIDASGTTFYNPSLRSRVTISVDTSTNQISLRLNSVTAADTAIYYCARRKTYYDFLTDYYNWYFDVWGRGTLVTVSS VL: QSALTQPRSVSGSPGQSVTFSCTGINSDIRDYDYVSWYQQHPGEAPKLIIYDVTKRASGVPSRFSGSKSGNTASLTISGLQAEDEADYYCCSYSVTYSFEVFGTGTQVSVL	3140	0.85	0.6		
Ara h 6-specific blocking IgG mAb 8F3 (antibody, V domains shown) VH: QLQLQESGPGLVKPSETLSLTCTVSDASIDTPSYFWSWIRQPPGKGLEWIGSIYYTGNKYSNPSLKSRVTMSVDTPKRQFSLRLSSVTAADTAVYYCARYVDYVWLRAFDIWGQGTRVTVSS VL: EIVLTQSPATLSLSPGERATLSCRASPSAGRFLAWYQQRPGQAPRLLIYDASKRATDTPARFSGSGSGTDFNLTIASLEPEDFAVYYCQHRSNWPLTFGGGTKVEIK				20% and 25%	50

Second part, the binder after the results:

ImmunoCAP kUA/L [1] [kUA/L]	ImmunoCAP kUA/L [2] [kUA/L]	ImmunoCAP kUA/L [3] [kUA/L]	percent of total peanut binding serum IgE blocked [4]	percent of serum Ara h 6-specific IgE blocked [5] [%]	Binder
14	25.8				human IgE mAb 15A7 (antibody, V domains shown) VH: QVQLVQSGPEVRKPGASVKVSCKTSGYMFTDYEMNWVRQAPGQGLEWMGLINPHSGDTGYAQKFQGRVSMTSDTSTRTFYLELTGLTSEDTAVYYCARSQGTFEVYYFVSWGQGSLVTVSS VL: SYVLTQPPSVSVAPGKTASITCGAKNIATKRVHWYRQKPGQAPVVVVSDEEDRSSVIPERFSGSKSGDTATLEISRVEAGDEADYYCQVWDSLADQVVFGGGTKVTVL
286	203	0.11			human IgE mAb 38B7 (antibody, V domains shown) VH: QVQLVESGGGVVQPGRSLRLSCVGSGFTFRRDAKYWVRQAPGKGLEWVAAISHDGGEEDYAESVKGRFTISRDNSRETVYLEMNSLRPEDTAVYYCATTRSGWYFDYWGQGALVTVSS VL: EIVLTQSPATLSLSPGARATLSCRASQSVDTYLAWYQQRRGQSPRLLIYDASKRATGIPARFSGSGSGTDFTLTISSLEPEDFAVYYCQQRNNWRTWTFGQGTKVEIN
783	0.46	0.15			human IgE mAb 26A5 (antibody, V domains shown) VH: QVQLVQSGSELRKPGASVKVSCKASGYTFTKYGMNWVRQAPGQGLEWMGWINTNTAKPTYAQDFTGRFVFSLDTSVNTAYLEISGLKAEDTAVYYCATDGSEGSWGQGTLVTVSS VL: DIQMTQSPSTLSASVGDRVTITCRASQSIGTWLAWHQQKPGTAPKVLIYKASNLKSGVPSRFSGSGSGTDFTLTISSLQPDDVATYYCQQYNTYSGTFGQGTRVEIK
420	0.41	0.19			human IgE mAb 7B6 (antibody, V domains shown) VH: QVQLQQWGAGLLKPSETLSLTCAVYGGSFNGYYWSWIRQPPGKGLEWIGEIDHSGSTNYNSSLKSRVTISVDTSKNQFSLKLSSVTAADTAVYYCARRRIGSLLKYFQDWGQGTLVTVSS VL: SYELTQPPSVSVSPGQTASITCSGDKLGDSYVCWYQLKPGQSPVLVIYQDTKRPSGIPERFSGSNSGNTATLTISETQAMDEADYYCQAWDTTTDWVFGGGTKLTVL
715	0.46	0.36			human IgE mAb 21C10 (antibody, V domains shown) VH: EVQLVESGGGLVKPGGSLRLSCAASGFILSRSSMSWVRQAPGKGLEWVSYISSTSSHIYYADSLKGRFTISRDNTENSVYLQMSSLRAEDTGVYYCARKTNGAWFLDLWGRGTLVTVSS VL: QSVLTQPPSVSGAPGQRVTISCTGSSSNIGAGSDVHWYQQFPGSAPHVLIYGNNQRPSGVPDRFSASKSGTSASLAITGLQADDEADYYCQSYDYDLSGSWVFGGGTKLTVL
